Laboratory results reported in patent publication US20110136850A1.

Experiments:
[1] = target: topoisomerase I from H358 cells (serine-phosphorylated) (human) (UniProt P11387); assay: IP/Western analysis, FIG. 5D upper panel
[2] = target: topoisomerase I from H358 cells (serine-phosphorylated) (human) (UniProt P11387); assay: co-immunoprecipitation followed by Western analysis, 48 hours after Adp14 (moi 20 pfu/cell)
[3] = target: topoisomerase I from H358 cells (serine-phosphorylated) (human) (UniProt P11387); assay: IP/Western analysis, FIG. 5D upper panel lane 5

Chain of topoisomerase I from H358 cells (serine-phosphorylated) (human) (P11387 2-765 limits assumed): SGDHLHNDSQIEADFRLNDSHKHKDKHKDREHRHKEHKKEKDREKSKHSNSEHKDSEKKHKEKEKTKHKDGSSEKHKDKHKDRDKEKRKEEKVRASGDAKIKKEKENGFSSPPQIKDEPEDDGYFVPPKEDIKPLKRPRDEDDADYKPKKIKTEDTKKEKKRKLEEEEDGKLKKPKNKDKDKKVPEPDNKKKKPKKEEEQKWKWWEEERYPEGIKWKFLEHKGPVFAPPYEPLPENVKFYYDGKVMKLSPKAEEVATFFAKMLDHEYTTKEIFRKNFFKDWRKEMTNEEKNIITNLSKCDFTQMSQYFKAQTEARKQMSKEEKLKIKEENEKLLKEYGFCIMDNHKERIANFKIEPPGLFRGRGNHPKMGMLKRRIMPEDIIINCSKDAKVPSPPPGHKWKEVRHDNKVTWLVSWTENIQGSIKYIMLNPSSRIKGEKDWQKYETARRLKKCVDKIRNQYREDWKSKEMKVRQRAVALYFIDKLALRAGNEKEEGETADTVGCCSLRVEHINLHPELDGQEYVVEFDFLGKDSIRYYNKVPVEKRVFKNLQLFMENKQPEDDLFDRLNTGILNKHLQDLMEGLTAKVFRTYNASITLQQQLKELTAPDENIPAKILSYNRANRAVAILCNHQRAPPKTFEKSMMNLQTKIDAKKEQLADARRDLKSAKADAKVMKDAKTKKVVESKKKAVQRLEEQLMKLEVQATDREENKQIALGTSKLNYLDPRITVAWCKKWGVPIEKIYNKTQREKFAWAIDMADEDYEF

p14ARF (ARF), cellular protein in nuclear extracts (endogenous or expressed from the Adp14 adenoviral vector) (from UniProt Q8N726 1-132)
3 fold: fold increase in ARF/topoisomerase I complex formation in Adp14-treated H358 cells against Ad1β-treated, control siRNA treated, or non-vector treated cells [1] | fold increase of co-immunoprecipitated ARF-topoisomerase I complexes after Adp14 treatment against untreated H358 cells [2] | fold decrease in ARF/topoisomerase I complex formation in ARF siRNA-treated H358 cells [3]
